Target: Isu1 (mature, residues 36-165) with the C-terminal His tag (S. cerevisiae) (UniProt Q03020)
Test: native MS

B1: Hsc20 without tag, co-expressed with Isu1 and Ssq1* (natural protein)
chain: TSTFYELFPKTFPKKLPIWTIDQSRLRKEYRQLQAQHHPDMAQQGSEQSSTLNQAYHTLKDPLRRSQYMLKLLRNIDLTQEQTSNEVTTSDPQLLLKVLDIHDELSQMDDEAGVKLLEKQNKERIQDIEAQLGQCYNDKDYAAAVKLTVELKYWYNLAKAFKDWAPGKQLEMNH
- stoichiometry N: 1

Source: article PMC11457148
